Assay results from PMC4004102.

Key:
[1] = target: FAM-AIP-I (fluorescein-labeled AIP-I analog) (Staphylococcus aureus); assay: fluorescence polarisation
[2] = target: AgrC-I (wild type) dimer embedded in nanodiscs (Staphylococcus aureus); assay: SEC-MALS

B1: AgrC-I (wild type) dimer embedded in nanodiscs (receptor)
chain: MELLNSYNFVLFVLTQMILMFTIPAIISGIKYSKLDYFFIIVISTLSLFLFKMFDSASLIILTSFIIIMYFVKIKWYSILLIMTSQIILYCANYMYIVIYAYITKISDSIFVIFPSFFVVYVTISILFSYIINRVLKKISTPYLILNKGFLIVISTILLLTFSLFFFYSQINSDEAKVIRQYSFIFIGITIFLSILTFVISQFLLKEMKYKRNQEEIETYYEYTLKIEAINNEMRKFRHDYVNILTTLSEFIREDDMPGLRDYFNKNIVPMKDNLQMNAIKLNGIENLKVREIKGLITAKILRAQEMNIPISIEIPDEVSSINLNMIDLSRSIGIILDNAIEASTEIDDPIIRVAFIESENSVTFIVMNKCADDIPRIHELFQESFSTKGEGRGLGLSTLKEIADNADNVLLDTIIENGFFIQKVEIINN
modifications: not checked
[1]
  Kd: 122 nM
[2]
  stoichiometry N: 2
